# Assay results reported in PMC5281607.
# Assay: whole-cell patch clamp, AITC amplitude and rectification
# Details: glycan lost; control: vehicle-treated (untreated) cells
protein,measurement,value
"TRPA1: tunicamycin 5 μg/ml, 24 h (protein) parent chain: MKRSLRKMWRPGEKKEPQGVVYEDVPDDTEDFKESLKVVFEGSAYGLQNFNKQKKLKRCDDMDTFFLHYAAAEGQIELMEKITRDSSLEVLHEMDDYGNTPLHCAVEKNQIESVKFLLSRGANPNLRNFNMMAPLHIAVQGMNNEVMKVLLEHRTIDVNLEGENGNTAVIIACTTNNSEALQILLKKGAKPCKSNKWGCFPIHQAAFSGSKECMEIILRFGEEHGYSRQLHINFMNNGKATPLHLAVQNGDLEMIKMCLDNGAQIDPVEKGRCTAIHFAATQGATEIVKLMISSYSGSVDIVNTTDGCHETMLHRASLFDHHELADYLISVGADINKIDSEGRSPLILATASASWNIVNLLLSKGAQVDIKDNFGRNFLHLTVQQPYGLKNLRPEFMQMQQIKELVMDEDNDGCTPLHYACRQGGPGSVNNLLGFNVSIHSKSKDKKSPLHFAASYGRINTCQRLLQDISDTRLLNEGDLHGMTPLHLAAKNGHDKVVQLLLKKGALFLSDHNGWTALHHASMGGYTQTMKVILDTNLKCTDRLDEDGNTALHFAAREGHAKAVALLLSHNADIVLNKQQASFLHLALHNKRKEVVLTIIRSKRWDECLKIFSHNSPGNKCPITEMIEYLPECMKVLLDFCMLHSTEDKSCRDYYIEYNFKYLQCPLEFTKKTPTQDVIYEPLTALNAMVQNNRIELLNHPVCKEYLLMKWLAYGFRAHMMNLGSYCLGLIPMTILVVNIKPGMAFNSTGIINETSDHSEILDTTNSYLIKTCMILVFLSSIFGYCKEAGQIFQQKRNYFMDISNVLEWIIYTTGIIFVLPLFVEIPAHLQWQCGAIAVYFYWMNFLLYLQRFENCGIFIVMLEVILKTLLRSTVVFIFLLLAFGLSFYILLNLQDPFSSPLLSIIQTFSMMLGDINYRESFLEPYLRNELAHPVLSFAQLVSFTIFVPIVLMNLLIGLAVGDIAEVQKHASLKRIAMQVELHTSLEKKLPLWFLRKVDQKSTIVYPNKPRSGGMLFHIFCFLFCTGEIRQEIPNADKSLEMEILKQKYRLKDLTFLLEKQHELIKLIIQKMEIISETEDDDSHCSFQDRFKKEQMEQRNSRWNTVLRAVKAKTHHLEP",other: channel current,no change
